Laboratory results taken from the nanobody polyreactivity screen of Harvey et al. (2022).

Experiment: yeast display, Sf9 membrane polyspecificity reagent, FACS + sequencing; frameworks hold sequencing errors
How it was run: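 After 36–48 hours of galactose induction, yeast (Saccharomyces cerevisiae BJ5465) displaying a synthetic nanobody library were stained at 4 °C for 1 hour with 10% biotinylated, detergent-solubilized Sf9 membrane reagent. Streptavidin microbeads enriched the stained cells before FACS sorting into low and high (top ~1%) gates on anti-HA and streptavidin fluorescence. Each clone's polyreactivity label reflects its gate of origin.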

Sequence | polyreactivity (PSR sort gate)
QVQLVESGGGLVQAGGSLRLSCAASGFIFRYYAMGWYRQEPGKERELVAAITSRGSSTYYADSVKGRFTISRDNAKNTVYLQMNSLKPEDTAVYYCAARLRGDYVRYDYWGQGTQVTVSS | high polyreactivity
QVQLVESGGGLVQAGGSLRLSCAASVRIFRYYVMGWYRQAPGKVRELVAAITSGTSTNFAESVKGRFTISRDNAKNTVYLQMNRLKPEDTAVFYCAVRSPRGGRTRFNSNYWGQGTQVTVSS | high polyreactivity
QVQLVESGGGLVQAGGSLRLRCAASGNTFRVYPMGWYRQAPGKESELVAAITWSGSRTYYADSVKGRFTISRDNAKNTVYFQINSLKPEDTAVYYCAARFVRAAYNYWGLGTQVTVSS | high polyreactivity
QVQLEESGGGLVQAGGSLRLSCAASGFTFGRYPLGWYRQAPGKERELVAAITRGSGGTYYADSVKGRFTISRDNAKNTVYLQMNSLKPEDTAVYYCNTASYRGYDYWGQGTQVTVSS | high polyreactivity
QVQLVESVGGLVQAGGSLRLSCAAYGYTFYSNAMGWYRQAPGKDRELVASIRSRGRSTYYADSVKGRFTISRDNAKNTVYLQMNSLKPEDTAVYYCAPLPNNPAVYAYDYWGEGTQVTVSS | low polyreactivity
QVQLVESWGGLVQAGGSLRLSCAASGITFSNYAMGWYRQAPGKERELVAAISKRGGSTYYADSVKGRFTISRDTAKYTVYLQMNSLKPEDTAVYYCAAAGVRVYVRSVLDYWGQGTQVTVSS | high polyreactivity
QVHLVESGGGLVQAGGSLRLSCAASGITFHGYAMGWYRQAPGKERELVAAISDSGSSTYYADSVKGRFTISRDNAKNTVYLQMNSLKPEDTAVYYCAAVSGFYDQYDYWGQGTQVTVSS | low polyreactivity
QVQLVESGGGLVQAGGSLRLSCAASGRIFGLNAMGWYRQAPGKERELVAAIDRSGASTYYADSVKGRFTISRDNAKNTVYLQMNSLKPEDTAVYYCAAESYLSGEEYDYWGQGTQVTVSS | high polyreactivity
QVQLVESGGGLVQAGGSLRLSCAASGSTFPAYAMGWYRQAPGKERELVAVINLSGSTYYADSVKGRFTISRDNAKNTVYLQMNSLKPEDTAVYYCNARPYDYYRYGYWGQGTQVTVSS | low polyreactivity
QVQLVESGGGLVQAGGSLRLSCAASGGIFRVYAMGWYRQAPGKERELVAAISRSGSSTYYADSVKGRFTISRDNAKNTVYLQMNSLKPEDTAVYYCNAYSQYWLGNNYWGQGSQVTVSS | high polyreactivity
QVQLVESGGGLVQAGGSLRLSCAASGSTILSYGMGWYRQAPGKERELVAGISRGGITYYADSVKGRFTISRDNAKNNVYLQMNSLKPEDTAVYYCNVGLYSYYYRSRPRDYEYWGQGTQVTVSS | high polyreactivity
QVQLVESGGGLVQAGGSLRLSCAASGLTFFNYAMGWNRQAPGKERELVASITSGGSTNYADSVKGRFTISRDNAKNTVYLQMNSLNPEDTAVYYCAARYPYRTYKLSHSYARPYGYWGQGTQVTVSS | high polyreactivity
QVQLVESGGGLVQAGGSLRLTCAASGFTFRKNVMGWYRQAPGKERELVAFISSSGGSTYYADSVKGRFTISRDNEKNTGYIPMNSLKPEETAVYYCNAGRYGSNLEYWGQATQVTVSS | low polyreactivity
QVQLVESGGGLDQAGGSLRLSCAASGLTFRYYAMGWYRQAPGKERELVAGISGRGGSTYYADSVKGRFTISRDNAKNTVYLQMNSLKPEDTAVYYCAADYSYGRFRRFDYWGQGTQVNVSS | high polyreactivity
QVQLVESGGGLVQAGGSLRLSCAASGLTFYVYGMGWYRQAPGKERELVASITSGGNTYYADSVKGRFTISRDNAKNTVYLQMNSLKPEDTAVYYCAVTAIALYYSSGYYWGQGTQVTVSS | low polyreactivity
QVQLVESGGGLVQAGGSLRLSCAASGFTLRTYAMGWYRQAPGKERELVAAITVSGGTYYADSVKGRFTISRDNAKYTVYLQMNSLKPEDTAVYYCTAKRFGTGFDYWGQGTQVTVSS | low polyreactivity
QVQLVESGGGLVQAGGSLRLSCAASGFITWGNAMGWYRQAPGKERELVAAISWRDARTYYADSVKGRFTISRDNAKNTVYLQMNSLKPEDTAVYYCNAVTAYVSRNLRGYRWFDYWGQGTQVTVSS | low polyreactivity
QVQHVESGGGLVQAGGSLRLSCAASGSTIEDYAMGWYRQAPGKERELVAAISFSGARTYYADSVKGRFTISRDKAKNTVYLQMNSLKPEDTAVYYCNAVSGIVQRYDYWGQGTQVTVSS | high polyreactivity
QVQLVESGGGLVQAGGSLRLSCAASGFIFKRYAMGWYRQAPGKERELVATISNSGGRTYYADSVKWRFTISRDNAKNTVYLQMNSLKPEDTAVYYCAALPFWWGGYWGQGTQVTVSS | high polyreactivity
QVQLVESVGGLVQAGGSLRLSCASSGRIFAWYGMGSYRQAPGKEMELVAAINSGGRTYYEDSVKGRFTISRVNAKNTVYLQMNSLKPEDTAVYYCAAKLAAYGWRFHYGYWGQGTQVTVSS | high polyreactivity
QVQLVESGGGLVQAGGSLRLSCAASGRTFVTYAMGWYRQAPGKERELVAAISASGGSTYYADSVKGRFTISRDNAKNTVYLQMNSLKPEDTAVYYCAKTYFLATPYGYWGQGTQVTVSS | low polyreactivity

Sequence | polyreactivity (PSR sort gate)
QVQLVESGGGLVQAGGSLRLSCAASGRIFRPYTMVWSRQAPGKERELVAAINSSGGRTYYADSVKGRFTISRDNAKNTVYLEMNSLKPEDTAVYYCAVGWVFYRASNMNYWGQGTQVTVSS | high polyreactivity
QVQLVESGGGLVQAGGSLRLSCAASGSIFYKYTMGWYRQAPGKERELVAAITKSGGSTYYADSVKGRFTISRDNAKNTVYLQMNSLKPEDTAVYYCAAQIGRSATRGSYGYWGQGTQVTVSS | high polyreactivity
QVQLVESGGGLVQAGGSLRLSCAASGRIFRYYTMGWYRQAPGKEREFVAAITLSGGRTYYADSVKGRFTISRDNAKNTVYLQMNSLKPEDTAVYYCAAYDRITRYDYWGQGTQVTVSS | high polyreactivity
QVQLVESVGGLVQAGGTLRLSCSASGSTFNVYAMGWYIQATGKERELVAAITRRGGSTYYADSVKGRFTISRDNAKNTVYLQMNSLKPEDTADYYFAARRRLDYYYYNYWGQGTQETVSS | high polyreactivity
QVQLVESGRGLVQAGGSLRLSCAASGFTFYIYAMGWYRQAPGKERELVAAINFGGGGTYYADSVKGRFTISRDNAKNTVYLQMNSLKPEDTAVYYCAADYWYDYYSTEYDYWGQGTQVTVSS | low polyreactivity
QVQLVESGGGLVQAGGSLRLSCAASGLTFKANAMGWYRQAPGKERELVAAITWSGTSTYYADSVKGRFTISRDNAKNTVYLQMNSLKPEDTAVYYCNKPYDVWYHDYDYWGQGTQVTVSS | low polyreactivity
QVQLVESGGGLVQAGGSLRLSCAASGRILTSYARGWYRQAPGKVRELVAAISYVCGSTDYADSVKGRFTISRDNAKNTVYLQMNSLKPEDTAVYYCAAKVRYYLSLRGSTTRRDDYYWGQGTQVTVSS | low polyreactivity
QVQHVESGGGLVQAGGSLRLSCAASGRTFRKNAMGWYRQAPGKERELVAAITGSSGTTYYADSVKGRFTISRDNAKNTVYLQMNSLKPEDTAVYYCATTVGDPGRRYYYWGQGTQVTVSS | high polyreactivity
QVQLVESGGALVQAGGSLRLSCAASRSTSKNYAMGWYRQAPGKERELVAAITRGTSTNYADSVKGRFTISRDNAKNTVYFQMNSLKPEDSAVYYCNVERHRVWDYQWREEDDYWGQGTQVTVSS | low polyreactivity
QVQLVESGGGLVQAGGSLRLSCAASGSTFSFNAMGWYRQAPGKERELVAAITYSGGDTYYADSVKGRFTISRDNAKNTVYLQMNSLKPEDTAVYYCAAKIPRPYAMDYWGQGTQVTVSS | low polyreactivity
QVQLVESAGGLVKEGGSLRLSCAASGRTFGVNAMGRYRQAPGKERELVAAITWSGDSTYYADSVKGRFTISRDNAKNTVYLQMNSLKPEDTAVYYCAKKSSLFKHVVRYAYWGQGNQVTVSS | low polyreactivity
QFQLVESGGGLVQAGGSLRLSCAASGRIFYSNAMGWYRQAPGKERELVAAISSSGGITYYADSVKGRFTISRDNAKNTVNLQMNSLKPEDSAVYYCAVDSRHYIRAFDHWGQGTQVTVSS | low polyreactivity
QVHLVESVGGLVQAGGSLRLSCAGSGRIFYLNSMGWYRQATGKDRELVAGITNSTTGTYYADSVKGRFKISRDNAKNTVYLQMNSLKAEETAVYYCNTDVAYEEPVETYDYWGQGTQVTVSS | low polyreactivity
QVQLVESGGGLVQAGGSLRLSCAASGSTFYPYAMGWYRQAPGKERELVAAISSSGGSTYYADSVKGRFTISRDNAKNTVYLQMNSLKPEDTAVYYCNADVHSQYDYWGQGTQVTVSS | low polyreactivity
QVQLVESGGGLVQAGGSLRLSCAASGRTFERYAMGWYRQAPGKERELVADISSSGSTNYADSVKGRFTISRDNAKNTVYLQMNRLNPEDTAVYYCAADYWRHWYWDVVEFDYWGQGTQVTVSS | high polyreactivity
QVQLVESGGGLVQAGGSLLLSCSASGRIFGVNAMGGYRQAPGKERELVAAISAGGGNTYYADSVKGRFTISRDNAKNTVYLQMNSLKPEDTAVYYCNVQRSLRMDYWGQGTQVTVSS | high polyreactivity
QVQLVESGGGLVQAGGSLRLSCAASGFIFRYYAMGWYRQAPGKERELVAAISSGGRTSYADSVKGRFTISRDNAKNTVYLQMNSLKPEDTAVYYCAADRWRGLFYYGNDYWGQGTQVTVSS | high polyreactivity
QVQLVESGGGIVQAGGSLRLSCAASGSTFAANAMGWYRPAPGKERELVAAITSGGGSTYYADSVKGRFTISRDNAKNTVYLQMNSLKPEDTAVYYCNAADWLETQVDLDYWGQGTQVTVSS | low polyreactivity
QVQLVESGGGLVQAGGSLRLSCAASGLTFAGYAMGWYRQAPGKERELVAAITSGGSTYYADSVKGRFTISRDNAKNTVYLQMNSLKPEDTAVYYCAARRVRKALVGYGYWGQGTQVTVSS | high polyreactivity
QVQIVESGGGVVQAGGSLRLSCAASGLIFPAYTMGWYRQAPGKERELVAAISRSGGSTYYADSVKGRFTISRDNAKNTVSLQMNSLNPEDTAVYYCAAQGYFVDRAGRYYRGDYWGQGTQVTVSS | high polyreactivity
